From PMC3903776, “Structural Characterization of the Mechanosensitive Channel Candidate MCA2 from Arabidopsis thaliana” (PLoS ONE, 2014)

Biological target: the molecule itself
Test: cross-linking; purified MCA2-6H in PBS with 4% APFO; 10 mM glutaraldehyde, room temperature, up to 30 min, stopped with 50 mM Tris-HCl pH 8.0; reducing SDS-PAGE, CBB staining

B1: MCA2-6H (Arabidopsis thaliana MCA2 with a 6xHis tag fused to the carboxyl terminus) (natural protein, UniProt Q3EBY6 1-416, looked up)
chain: MANSWDQLGEIASVAQLTGIDALKLIGMIVNAANTARMHKKNCRQFAHHLKLIRNLLEQIKNSEMNQRSEILEPLQGLDDALRRSYILVKSCQEKSYLYLLAMGWNIVNQFEKAQNEIDLFLKIVPLINMADNARIRERLEAIERDQREYTLDEEDRKVQDVILKQESTREAATSVLKKTLSRSYPNMGFCEALKTEEEKLQLELQRSRARYDADQCEVIQRLIDVTQTAATVEPNLEKVLTKKEELTSSKKRDDLYDTDSSSIRADSRSTSYVSSGHELLSGRSLQHRGNWHADLLDCCSEPCLCLKTLFFPCGTLAKISTVATSRQISSTEVCKNLIVYSLILSCCCYTCCIRKKLRKTLNITGGCIDDFLSHLMCCCCALVQELREVEIHRASYGTEKSNKEMSPPTPQFMEE
notes: MCA2 of Arabidopsis thaliana, 416 amino acid residues; source: Sf9 cells, baculovirus (Bac-to-Bac), membrane fraction solubilised in APFO, purified (His GraviTrap, Superdex 200 SEC); not shown: 6xHis, C-terminal, kept
- stoichiometry N: 4
